From publication PMC7412237 (Molecules, 2020) come the findings set out here.

Common to all, as to settings: both partners purified
One assay concerns the target T1, wt-p53 (1–321 aa) (human, UniProt P04637 1-321).
T1 construct: p53, human, residues 1-321, cloned into pET23; also called p53-wt; source: E. coli BL21 (DE3) RIL, purified (Ni-NTA, gel filtration)
Nature of the assay: ITC; Microcal iTC200, 25 °C; 0.012–0.030 mM p53 in the cell, 0.1–0.3 mM Mdm2 or MdmX in the syringe; 20 injections; single set of sites; in duplicate.

The target of assay [1] is human wt-PD-1 (33–150 aa, C93S mutation) (human, UniProt Q15116 33-150, C93S, RED-NHS fluorescent label (in the MST); uniformly 15N-labelled (in the NMR)). Description: MST; PD-1 or mutant labelled with RED-NHS, kept at 20 nM; unlabelled PD-L1 diluted from 183 µM to 416 nM; 50 mM Tris-HCl pH 7.6, 150 mM NaCl, 10 mM MgCl2, 0.05% Tween-20; 2 h at RT.
Sequence of human wt-PD-1 (33–150 aa, C93S mutation) (Q15116 33-150 C93S): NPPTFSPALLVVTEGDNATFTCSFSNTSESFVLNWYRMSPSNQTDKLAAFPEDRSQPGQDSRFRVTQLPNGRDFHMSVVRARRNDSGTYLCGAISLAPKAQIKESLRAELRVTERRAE
The next assay addresses (N66A)PD-1 (human, UniProt Q15116 33-150, C93S | N66A, RED-NHS fluorescent label (in the MST); uniformly 15N-labelled (in the NMR)). Described as above.

Sequence of (N66A)PD-1 (Q15116 33-150 N66A/C93S): as the sequence (Q15116 33-150 C93S) above, with N34A counted along it
T1 sequence (P04637 1-321): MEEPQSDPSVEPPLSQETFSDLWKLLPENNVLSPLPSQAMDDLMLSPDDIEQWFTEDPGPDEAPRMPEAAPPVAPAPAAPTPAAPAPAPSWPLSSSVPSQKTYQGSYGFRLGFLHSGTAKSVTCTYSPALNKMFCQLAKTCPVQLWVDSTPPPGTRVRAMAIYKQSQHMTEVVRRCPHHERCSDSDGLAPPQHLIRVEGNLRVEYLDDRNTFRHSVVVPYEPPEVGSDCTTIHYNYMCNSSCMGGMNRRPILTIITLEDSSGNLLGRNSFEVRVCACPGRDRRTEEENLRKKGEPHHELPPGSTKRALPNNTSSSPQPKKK

B1: recombinant human Mdm2 (1–125 aa) (domain or fragment, UniProt Q00987 1-125, looked up)
chain: MCNTNMSVPTDGAVTTSQIPASEQETLVRPKPLLLKLLKSVGAQKDTYTMKEVLFYLGQYIMTKRLYDEKQQHIVYCSNDLLGDLFGVPSFSVKEHRKIYTMIYRNLVVVNQQESSDSGTSVSEN
Regarding B1, in the assay with wt-p53 (1–321 aa), the Kd stood at 0.6 ± 0.02 µM.

B2: recombinant PD-L1 (18–134 aa) (domain or fragment)
chain: AFTVTVPKDLYVVEYGSNMTIECKFPVEKQLDLAALIVYWEMEDKNIIQFVHGEEDLKVQHSSYRQRARLLKDQLSLGNAALQITDVKLQDAGVYRCMISYGGADYKRITVKVNAPY
Regarding B2, the figures for the Kd (in assay [1]; with (N66A)PD-1) were 8 µM and more than 100 µM, respectively.
